Drawing on article doi:10.1101/2025.06.20.660723, this text covers stoichiometry N (Lhcb1 per Lhcb2) for 1 substance.

The test has as its target Lhcb2 of Posidonia oceanica, threonine-phosphorylated (Posidonia oceanica (endogenous in leaves)).

On to “Lhcb1 of Posidonia oceanica (natural protein)”, for which the stoichiometry N (Lhcb1 per Lhcb2) was found to be 2.
